This experiment has as its target interferon α (IFNα) (UniProt P01563). Put plainly: SPR. On the technique in general: In SPR one partner is held on a chip, and binding of the other changes the refractive index at the surface.

Drawing on article PMC7893194, this text covers Kd for 1 molecule.

B1: human IFNAR1 (receptor)
chain: KNLKSPQKVEVDIIDDNFILRWNRSDESVGNVTFSFDYQKTGMDNWIKLSGCQNITSTKCNFSSLKLNVYEEIKLRIRAEKENTSSWYEVDSFTPFRKAQIGPPEVHLEAEDKAIVIHISPGTKDSVMWALDGLSFTYSLVIWKNSSGVEERIENIYSRHKIYKLSPETTYCLKVKAALLTSWKIGVYSPVHCIKTTVENELPPPENIEVSVQNQNYVLKWDYTYANMTFQVQWLHAFLKRNPGNHLYKWKQIPDCENVKTTQCVFPQNVFQKGIYLLRVQASDGNNTSFWSEEIKFDTEIQAFLLPPVFNIRSLSDSFHIYIGAPKQSGNTPVIQDYPLIYEIIFWENTSNAERKIIEKKTDVTVPNLKPLTVYCVKARAHTMDEKLNKSSVFSDAVCEKTKPGNTSKIWLIVGICIALFALPFVIYAAKVFLRCINYVFFPSLKPSSSIDEYFSEQPLKNLLLSTSEEQIEKCFIIENISTIATVEETNQTDEDHKKYSSQTSQDSGNYSNEDESESKTSEELQQDFV
In the case of B1, the Kd was 4.58 nM. This counts as single-digit nanomolar.

As a reminder, the Kd is the free concentration of one partner at which half of the binding sites on the other are occupied at equilibrium, for simple one-to-one binding. Higher therefore signals weaker binding.
